Experimental data published in article PMC5290273 (Nature Communications, 2017).
No end group written: not given here. *: point of attachment. 5FAM = O=C1OC2(c3ccc(O)cc3Oc3cc(O)ccc32)c2ccc(C(=O)*)cc21; GABA = NCCCC(=O)O

B2: His6-tagged wild-type AFF4^ELLBow (AFF4 301–351) (peptide, UniProt Q9UHB7 301-351, looked up)
chain: PSQPLDASASGDVSCVDEILKEMTHSWPPPLTAIHTPCKTEPSKFPFPTKE

Tests used:
[1] = target: Sumo-ELL2^Occ, wild type (human) (UniProt O00472); test: fluorescence polarisation
[2] = target: Sumo-ELL2^Occ (human) (UniProt O00472); test: fluorescence polarisation
[3] = target: ELL2^Occ–(Gly-Ser)4–AFF4^ELLBow (human) (UniProt O00472); test: SEC; Hiload 16/60 (GE) gel filtration; elution volumes; 44 kDa and 17 kDa markers shown in panel a
[4] = target: AFF4, endogenous (human (endogenous in HEK 293T)) (UniProt Q9UHB7)
[5] = target: T1, Sumo-ELL2^Occ (human, UniProt O00472 519-640); test: fluorescence polarisation; details: both partners purified
T1 sequence (looked up): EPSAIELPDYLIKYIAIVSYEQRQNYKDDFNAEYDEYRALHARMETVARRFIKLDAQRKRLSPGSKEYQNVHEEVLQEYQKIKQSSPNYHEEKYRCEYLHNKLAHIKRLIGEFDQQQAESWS

[6] = target: T2, Sumo-ELL2^Occ, wild type (human, UniProt O00472 519-640); test: fluorescence polarisation; details: both partners purified
T2 sequence (looked up): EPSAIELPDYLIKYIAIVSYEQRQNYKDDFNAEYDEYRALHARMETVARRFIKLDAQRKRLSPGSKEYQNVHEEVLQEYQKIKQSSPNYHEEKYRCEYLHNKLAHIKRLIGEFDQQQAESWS

[7] = target: T3, ELL2^Occ (ELL2 residues 519–640), the ELL2 part of the crystallised fusion (human, UniProt O00472 519-640, selenomethionine (SeMet crystals used for phasing and refinement)); test: crystal structure; details: both partners purified
T3 sequence (looked up): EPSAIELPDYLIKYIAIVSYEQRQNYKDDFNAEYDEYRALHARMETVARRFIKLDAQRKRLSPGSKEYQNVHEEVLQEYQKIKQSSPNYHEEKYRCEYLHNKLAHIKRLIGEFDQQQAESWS

[8] = target: B2; test: pull-down; details: both partners purified

AFF4, endogenous (human (endogenous in HEK 293T)), sequence (Q9UHB7 whole entry): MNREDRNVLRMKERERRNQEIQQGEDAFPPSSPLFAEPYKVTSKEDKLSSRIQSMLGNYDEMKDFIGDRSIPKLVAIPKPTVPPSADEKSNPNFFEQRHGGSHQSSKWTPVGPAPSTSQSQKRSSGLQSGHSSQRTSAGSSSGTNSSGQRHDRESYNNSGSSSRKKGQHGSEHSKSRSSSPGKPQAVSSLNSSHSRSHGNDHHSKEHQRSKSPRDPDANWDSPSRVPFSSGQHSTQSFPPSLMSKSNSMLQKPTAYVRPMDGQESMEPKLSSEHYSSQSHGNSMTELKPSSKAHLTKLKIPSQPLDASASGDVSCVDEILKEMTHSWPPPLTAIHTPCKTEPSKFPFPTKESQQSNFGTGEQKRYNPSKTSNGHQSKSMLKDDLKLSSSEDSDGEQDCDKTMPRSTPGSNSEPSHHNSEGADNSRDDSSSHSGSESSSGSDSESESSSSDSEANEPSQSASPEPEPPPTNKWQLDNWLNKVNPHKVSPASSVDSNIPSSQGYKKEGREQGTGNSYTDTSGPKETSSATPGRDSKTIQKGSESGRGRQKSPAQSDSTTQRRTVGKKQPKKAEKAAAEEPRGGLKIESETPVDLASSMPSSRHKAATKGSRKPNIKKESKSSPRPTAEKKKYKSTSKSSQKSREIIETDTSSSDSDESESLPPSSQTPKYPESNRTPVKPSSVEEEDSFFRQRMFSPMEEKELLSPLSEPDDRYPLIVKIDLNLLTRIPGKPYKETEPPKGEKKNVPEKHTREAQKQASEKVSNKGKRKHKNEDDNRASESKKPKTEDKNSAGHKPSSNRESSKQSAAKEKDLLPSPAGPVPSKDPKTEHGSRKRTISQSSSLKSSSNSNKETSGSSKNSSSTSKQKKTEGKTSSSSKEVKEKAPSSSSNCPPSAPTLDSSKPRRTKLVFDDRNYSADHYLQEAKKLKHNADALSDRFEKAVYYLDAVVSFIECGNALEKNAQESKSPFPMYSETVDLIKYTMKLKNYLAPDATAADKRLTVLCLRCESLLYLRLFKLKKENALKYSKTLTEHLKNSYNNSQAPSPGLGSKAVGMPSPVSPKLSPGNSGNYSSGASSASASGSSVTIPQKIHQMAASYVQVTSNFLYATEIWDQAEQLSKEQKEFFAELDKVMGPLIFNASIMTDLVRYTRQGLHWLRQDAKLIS

His-tagged AFF4^ELLBow (301–351) D317P/E317P (from UniProt Q9UHB7 301-351) (peptide)
other [1]: 10 fold

His6-AFF4^ELLBow P328G/P329G (from UniProt Q9UHB7 301-351) (domain or fragment)
Kd [2]: 270 nM

ELL2^Occ–(Gly-Ser)4–AFF4^ELLBow (from UniProt O00472 519-640; Q9UHB7 301-351)
stoichiometry N [3]: 2

HA-tagged ELL2^H559E/H608E/N619A/K625T (from UniProt O00472 1-640) (natural protein)
other (fold less than wild type) [4]: 5

B1: His6-AFF4^ELLBow L331D (domain or fragment, human, UniProt Q9UHB7 301-351, looked up)
chain: PSQPLDASASGDVSCVDEILKEMTHSWPPPDTAIHTPCKTEPSKFPFPTKE
Kd [5]: 1600 ± 310 nM

B2
Kd [6]: 86 nM

B3: AFF4^ELLBow (AFF4 residues 301–351), the AFF4 part of the crystallised fusion (domain or fragment, human, UniProt Q9UHB7 301-351, looked up)
chain: PSQPLDASASGDVSCVDEILKEMTHSWPPPLTAIHTPCKTEPSKFPFPTKE
modifications: not fully specified (residue 23); cysteine pairing not given here
binding result [7]: binds

B4: His6-AFF4^ELLBow K321P (domain or fragment, human, UniProt Q9UHB7 301-351, looked up)
chain: PSQPLDASASGDVSCVDEILPEMTHSWPPPLTAIHTPCKTEPSKFPFPTKE
Kd [5]: 240 ± 60 nM

B5: His-tagged AFF4^ELLBow (301–351) I334D (peptide, UniProt Q9UHB7 301-351, looked up)
chain: PSQPLDASASGDVSCVDEILKEMTHSWPPPLTADHTPCKTEPSKFPFPTKE
other [6]: 8 fold

B6: His6-AFF4^ELLBow F345D/F347D (domain or fragment, human, UniProt Q9UHB7 301-351, looked up)
chain: PSQPLDASASGDVSCVDEILKEMTHSWPPPLTAIHTPCKTEPSKDPDPTKE
Kd [5]: 130 ± 58 nM

B7: His6-AFF4^ELLBow V316D (domain or fragment, human, UniProt Q9UHB7 301-351, looked up)
chain: PSQPLDASASGDVSCDDEILKEMTHSWPPPLTAIHTPCKTEPSKFPFPTKE
Kd [5]: 230 ± 48 nM

B8: GST-ELL2 (519–640) H608E (domain or fragment, human, UniProt O00472 519-640, looked up)
chain: EPSAIELPDYLIKYIAIVSYEQRQNYKDDFNAEYDEYRALHARMETVARRFIKLDAQRKRLSPGSKEYQNVHEEVLQEYQKIKQSSPNYEEEKYRCEYLHNKLAHIKRLIGEFDQQQAESWS
binding result [8]: binds

B9: His-tagged AFF4^ELLBow (301–351) F345D/F347D (peptide, UniProt Q9UHB7 301-351, looked up)
chain: PSQPLDASASGDVSCVDEILKEMTHSWPPPLTAIHTPCKTEPSKDPDPTKE
other [6]: < 2 fold

B10: His6-AFF4^ELLBow L331D/I334D (domain or fragment, human, UniProt Q9UHB7 301-351, looked up)
chain: PSQPLDASASGDVSCVDEILKEMTHSWPPPDTADHTPCKTEPSKFPFPTKE
Kd [5]: 1900 ± 510 nM

B11: GST-ELL2 (519–640) H559E (domain or fragment, human, UniProt O00472 519-640, looked up)
chain: EPSAIELPDYLIKYIAIVSYEQRQNYKDDFNAEYDEYRALEARMETVARRFIKLDAQRKRLSPGSKEYQNVHEEVLQEYQKIKQSSPNYHEEKYRCEYLHNKLAHIKRLIGEFDQQQAESWS
binding result [8]: binds

B12: His6-AFF4^ELLBow D317P/E318P (domain or fragment, human, UniProt Q9UHB7 301-351, looked up)
chain: PSQPLDASASGDVSCVPPILKEMTHSWPPPLTAIHTPCKTEPSKFPFPTKE
Kd [5]: 800 ± 180 nM

B13: His-tagged AFF4^ELLBow (301–351) P342D (peptide, UniProt Q9UHB7 301-351, looked up)
chain: PSQPLDASASGDVSCVDEILKEMTHSWPPPLTAIHTPCKTEDSKFPFPTKE
other [6]: ~3 fold

B14: His-tagged AFF4^ELLBow (301–351) L331D (peptide, UniProt Q9UHB7 301-351, looked up)
chain: PSQPLDASASGDVSCVDEILKEMTHSWPPPDTAIHTPCKTEPSKFPFPTKE
other [6]: ~20 fold

B15: His-tagged AFF4^ELLBow (301–351) double 328–329 Pro–Gly mutant (peptide, UniProt Q9UHB7 301-351, looked up)
chain: PSQPLDASASGDVSCVDEILKEMTHSWGGPLTAIHTPCKTEPSKFPFPTKE
other [6]: 3 fold

B16: His6-AFF4^ELLBow P342D (domain or fragment, human, UniProt Q9UHB7 301-351, looked up)
chain: PSQPLDASASGDVSCVDEILKEMTHSWPPPLTAIHTPCKTEDSKFPFPTKE
Kd [5]: 200 ± 50 nM

B17: His6-AFF4^ELLBow M323D (domain or fragment, human, UniProt Q9UHB7 301-351, looked up)
chain: PSQPLDASASGDVSCVDEILKEDTHSWPPPLTAIHTPCKTEPSKFPFPTKE
Kd [5]: 2700 ± 1140 nM

B18: His6-AFF4^ELLBow W327D (domain or fragment, human, UniProt Q9UHB7 301-351, looked up)
chain: PSQPLDASASGDVSCVDEILKEMTHSDPPPLTAIHTPCKTEPSKFPFPTKE
Kd [5]: 370 ± 86 nM

B19: His-tagged AFF4^ELLBow (301–351) I319D/L320D (peptide, UniProt Q9UHB7 301-351, looked up)
chain: PSQPLDASASGDVSCVDEDDKEMTHSWPPPLTAIHTPCKTEPSKFPFPTKE
other [6]: > 25 fold

B20: His6-AFF4^ELLBow T332K (domain or fragment, human, UniProt Q9UHB7 301-351, looked up)
chain: PSQPLDASASGDVSCVDEILKEMTHSWPPPLKAIHTPCKTEPSKFPFPTKE
Kd [5]: 69 ± 37 nM

B21: His-tagged AFF4^ELLBow (301–351) E322H (peptide, UniProt Q9UHB7 301-351, looked up)
chain: PSQPLDASASGDVSCVDEILKHMTHSWPPPLTAIHTPCKTEPSKFPFPTKE
other [6]: < 2 fold

B22: His-tagged AFF4^ELLBow (301–351) M323D (peptide, UniProt Q9UHB7 301-351, looked up)
chain: PSQPLDASASGDVSCVDEILKEDTHSWPPPLTAIHTPCKTEPSKFPFPTKE
other [6]: > 25 fold

B23: His6-AFF4^ELLBow E322H (domain or fragment, human, UniProt Q9UHB7 301-351, looked up)
chain: PSQPLDASASGDVSCVDEILKHMTHSWPPPLTAIHTPCKTEPSKFPFPTKE
Kd [5]: 130 ± 33 nM

B24: His6-AFF4^ELLBow I319D/L320D (domain or fragment, human, UniProt Q9UHB7 301-351, looked up)
chain: PSQPLDASASGDVSCVDEDDKEMTHSWPPPLTAIHTPCKTEPSKFPFPTKE
Kd [5]: 5400 ± 1870 nM

B25: GST-ELL2 (519–640) K625T (domain or fragment, human, UniProt O00472 519-640, looked up)
chain: EPSAIELPDYLIKYIAIVSYEQRQNYKDDFNAEYDEYRALHARMETVARRFIKLDAQRKRLSPGSKEYQNVHEEVLQEYQKIKQSSPNYHEEKYRCEYLHNKLAHITRLIGEFDQQQAESWS
binding result [8]: binds

B26: His-tagged AFF4^ELLBow (301–351) W327D (peptide, UniProt Q9UHB7 301-351, looked up)
chain: PSQPLDASASGDVSCVDEILKEMTHSDPPPLTAIHTPCKTEPSKFPFPTKE
other [6]: 4 fold

B27: His-tagged AFF4^ELLBow (301–351) I319D/L320D/M323D (peptide, UniProt Q9UHB7 301-351, looked up)
chain: PSQPLDASASGDVSCVDEDDKEDTHSWPPPLTAIHTPCKTEPSKFPFPTKE
Kd [6]: > 3000 nM

B28: His6-AFF4^ELLBow I334D (domain or fragment, human, UniProt Q9UHB7 301-351, looked up)
chain: PSQPLDASASGDVSCVDEILKEMTHSWPPPLTADHTPCKTEPSKFPFPTKE
Kd [5]: 670 ± 210 nM

B29: fluorescently labelled AFF1^ELLBow peptide 358–390 (peptide)
peptide: {5FAM-GABA}-EILKEMTHSWPPPLTAIHTPSTAEPSKFPFPTK-NH2
SMILES: CC[C@H](C)[C@H](NC(=O)[C@H](C)NC(=O)[C@@H](NC(=O)[C@H](CC(C)C)NC(=O)[C@@H]1CCCN1C(=O)[C@@H]1CCCN1C(=O)[C@@H]1CCCN1C(=O)[C@H](Cc1c[nH]c2ccccc12)NC(=O)[C@H](CO)NC(=O)[C@H](Cc1c[nH]cn1)NC(=O)[C@@H](NC(=O)[C@H](CCSC)NC(=O)[C@H](CCC(=O)O)NC(=O)[C@H](CCCCN)NC(=O)[C@H](CC(C)C)NC(=O)[C@@H](NC(=O)[C@H](CCC(=O)O)NC(=O)CCCNC(=O)c1ccc2c(c1)C(=O)OC21c2ccc(O)cc2Oc2cc(O)ccc21)[C@@H](C)CC)[C@@H](C)O)[C@@H](C)O)C(=O)N[C@@H](Cc1c[nH]cn1)C(=O)N[C@H](C(=O)N1CCC[C@H]1C(=O)N[C@@H](CO)C(=O)N[C@H](C(=O)N[C@@H](C)C(=O)N[C@@H](CCC(=O)O)C(=O)N1CCC[C@H]1C(=O)N[C@@H](CO)C(=O)N[C@@H](CCCCN)C(=O)N[C@@H](Cc1ccccc1)C(=O)N1CCC[C@H]1C(=O)N[C@@H](Cc1ccccc1)C(=O)N1CCC[C@H]1C(=O)N[C@H](C(=O)N[C@@H](CCCCN)C(N)=O)[C@@H](C)O)[C@@H](C)O)[C@@H](C)O
notes: also called fluorescent peptide
binding result [6]: binds

EILKEMTHSWPPPLTAIHTPCKTEPSKFPFPTK (peptide, UniProt Q9UHB7 318-350, looked up) [AFF4 WT, 318-350 peptide]
Kd [5]: 4000 ± 1570 nM
